Source: patent publication US20120308566A1 (published 2012)
Blank lines part the entries; values can stand above or below the binder they belong to.

What was measured:
[1] = molecular target: Human IL-17RA full-length expressed on the surface of cells (human, UniProt Q96F46 33-866); assay: cell-based or functional assay
[2] = molecular target: T1, chimera L; assay: Bio-Plex titration on His-captured chimera; bold cell = binding criterion not met
T1 construct: also called Construct L; B+F
Protocol: Twelve bead codes of pentaHis-coated beads (Qiagen, Valencia, Calif.; see www1.qiagen.com) were used to capture histidine-tagged protein. The 12 bead codes allowed the multiplexing of 11 chimeric and the wild type human IL-17RA.
To prepare the beads, 100 ul of wild-type IL-17RA supernatant from transient expression culture and 100 ul of 2.5 ug/ml chimeric protein were bound to penta-His-coated beads overnight at 4° C. or 2 hours at room temperature with vigorous shaking. The beads were washed as per the manufacturer's protocol and the 12 bead set was pooled and aliquoted into 2 or 3 columns of a 96-well filter plate (Millipore, Billerica, Mass., product #MSBVN1250) for duplicate or triplicate assay points, respectively. 100 ul anti-IL-17RA antibodies in 4-fold dilutions were added to the wells, incubated for 1 hour at room temperature, and washed. […] Beads were resuspended in 1% BSA, shaken for 3 minutes, and read on the Bio-Plex workstation. Antibody binding to IL-17RA chimeric protein was compared to antibody binding to the human IL-17RA wild-type from the same pool. A titration of antibody over approximately a 5 log scale was performed. Median Fluorescence Intensity (MFI) of chimeric proteins was graphed as a percent of maximum wild-type human IL-17RA signal.

[3] = molecular target: T2, huIL-17RA-FLAG-polyHis (human, UniProt Q96F46 33-320); assay: multiplexed Luminex binning
T2 construct: also called wild-type IL-17RA-FLAG-polyHis; HuIL-17RA-Flag-pHis
Protocol: Cross-competition studies were performed to determine IL-17RA binding characteristics of exemplary IL-17RA antibodies. […] The method employed the Bio-Plex Workstation and software (BioRad, Hercules, Calif.), as well as reagents from Luminex® Corp. (Austin, Tex.). The manufacturers' basic protocols were followed except where noted below (see www.bio-rad.com and www.luminexcorp.com for details). […] The mouse-anti-human IgG coating was evaluated and the beads quantified by FACS. Each bead code was separately incubated with 10 ul of anti-IL-17RA antibody for 1 hour at room temperature and then washed. The beads were pooled and then dispensed to a 96-well filter plate (Millipore, Billerica, Mass., product #MSBVN1250). […] The PE-tagged monovalent antibody will detect the presence of the second mAb added to the well, but not the first mAb captured by the monovalent mouse-anti-human IgG antibody. Beads were resuspended in 120 ul PBSAT and at least 100 events/bead code were collected on the Bio-Plex workstation as per the manufacturer's recommended protocol.

- IL-17A/HFF bioassay IC50; 14. Subclone of (AMH18/AML18) [1]: 0.44 nM
- IL-17A/HFF bioassay IC50; 15. Subclone of (AMH18/AML18) [1]: 0.4 nM
- IL-17A/HFF bioassay IC50; 16. Subclone of (AMH18/AML18) [1]: 0.17 nM
- EC50 entry; zero = binding ablated [2]: 0 nM
B1: AMH18/AML18 (antibody, IgG2, V domains shown)
VH: QVQLVQSGAEVKKPGASVKVSCKASGYSFTDYYMHWVRQAPGQGLEWMGWMHPNSGGTDLAQRFQGRVTMTRDTSISTAYMELSRLRSDDTAVYYCARGGYCSTLSCSFYWYFDLWGRGTLVTVSS
VL: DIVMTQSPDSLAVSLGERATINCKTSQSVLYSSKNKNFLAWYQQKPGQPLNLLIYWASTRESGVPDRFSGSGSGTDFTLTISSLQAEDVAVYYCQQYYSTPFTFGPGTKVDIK
notes: human monoclonal antibody from IgG2 XenoMouse mice; also called AM-18

- IL-17A/HFF bioassay IC50; 13. Subclone of (AMH13/AML13) [1]: > 10 nM
B2: AMH13/AML13 (antibody, IgG2, V domains shown)
VH: QVQLVESGGGVVQPGRSLRLSCAASGFTFSSYGMQWVRQAPGKGLEWVAVIWYDGNKKYYADSVKGRFTISRDNSKNTLYLQMNSLRAEDTAVYYCARGRVRDYYYGMDVWGQGTTVTVSS
VL: DIVMTQTPLSLSVTPGQPASIACKSSQSLLHSDGKTYLYWYLQKPGQPPQLLIYEVSTRFSGVPDRFSGSGSGTDFTLKISRVEAEDVGVFYCMQSIQLPLTFGGGTKVEIK

- IL-17A/HFF bioassay IC50; 4. Subclone of (AMH21/AML21) [1]: 2.3 nM
- IL-17A/HFF bioassay IC50; 5. Subclone of (AMH21/AML21) [1]: 3.1 nM
- IL-17A/HFF bioassay IC50; 6. Subclone of (AMH21/AML21) [1]: 3.3 nM
B3: AMH21/AML21 (antibody, IgG2, V domains shown)
VH: EVQLVESGGGSVQPGGSLRLSCAASGFTFSSYSMNWVRQAPGKGLEWVSIISSRSSIIHYADSVKGRFTISRDNAKNSLYLQMNSLRDEDTAVYYCARPKVGGGMDVWGQGTTVTVSS
VL: DIQMTQSPSSLSASVGDRVTITCRASQGISNYLAWYQQKPGKFPELLIYAASTLQSGVPSRFSGSGSGTDFTLTISSLQPEDVATYYCQKYNRAPFTFGPGTKVDIK

- IL-17A/HFF bioassay IC50; 7. Subclone of (AMH20/AML20) [1]: 8.1 nM
- IL-17A/HFF bioassay IC50; 8. Subclone of (AMH20/AML20) [1]: 6.6 nM
- IL-17A/HFF bioassay IC50; 9. Subclone of (AMH20/AML20) [1]: 6.7 nM
B4: AMH20/AML20 (antibody, IgG2, V domains shown)
VH: EVQLVESGGGLVQPGGSLRLSCAASGFTFSSYSMNWVRQAPGKGLEWVSFISARSSTIYYADSVKGRFTISRDNAKNSLYLQMNSLRDEDTAVYYCARPKVGGGMDVWGQGTTVTVSS
VL: DIQMTQSPSSLSASVGDRVTITCRASQGISNYLAWYQQKPGKFPELLIYAASTLQSGVPSRFSGSGSGTDFTLTISSLQPEDVATYYCQKYNRAPFTFGPGTKVDIK

- binding result [3]: binds
B5: AMH10/AML10 (antibody, IgG2, V domains shown)
VH: QVQLQESGPGLVKPSQTLSLTCTVSGGSISSGGYYWSWIRQHPGKGLEWIGYIYFSGSAYYNPSLKSRVAISVDTSKNQFSLKLSSVTAADTAVYYCAREYYDSSGYPDAFDIWGQGTMVTVSS
VL: DIQMTQSPSSVSASVGDRVTITCRASQGIRSWLAWYQQKPGKAPKLLIFAASSLQSGVPSRFSGSGSGTEFTLTISSLQPEDFATYYCQQANNFPRTFGQGTKVEIK
notes: human monoclonal antibody from IgG2 XenoMouse mice; also called AM-10

- binding result [3]: binds
B6: AMH7/AML7 (antibody, IgG2, V domains shown)
VH: QVQLVQSGAEVKKPGASVKVSCKASGYTLTRYGISWVRQAPGQGLEWMGWISAYNGNTNYAQKLQGRVTMTTDTSTSTAYMELRSLRSDDTAVYYCARRDYDILTGYYNGFDPWGQGTLVTVSS
VL: DIQMTQSPSSLSASVGDRVTITCRASQGIRNDLGWYQQKPGKAPKRLIYAASSLQSGVPSRFSGSGSGTEFTLTISSLQPEDFATYYCLQHKSYPLTFGGGTKVEIK
notes: human monoclonal antibody from IgG2 XenoMouse mice; also called AM-7

- binding result [3]: binds
B7: AMH6/AML6 (antibody, IgG2, V domains shown)
VH: QVQLVQSGAEVKKPGASVKVSCKASGYTLTRYGISWVRQAPGQGLEWMGWISAYNGNTNYAQKLQGRVTMTTDTSTSTAYMELRSLRSDDTAVYYCARRDYDILTGYYNGFDPWGQGTLVTVSS
VL: DIQMTQSPSSLSASVGDRVTITCRASQGIRNDLGWYQQKPGKAPKRLIYAASSLQSGVPSRFSGSGSGTEFTLTISSLQPEDFATYYCLQHKSYPLTFGGGTKVEIK
notes: human monoclonal antibody from IgG2 XenoMouse mice; also called AM-6

- binding result [3]: binds
B8: AMH8/AML8 (antibody, IgG2, V domains shown)
VH: QVQLVQSGAEVKKPGASVKVSCKASGNTFTGYGISWVRQAPGQGLEWMGWISAYNGNTNYAQNLQGRVTMTTDTSTSTAYMELRSLRSDDTAVYYCARRDYDILTGYYNGFDPWGQGTLVTVSS
VL: DIQMTQSPSSLSASVGDRVTITCRASQGIRNDLGWYQQKPGKAPKRLIYAASSLQSGVPSRFSGSGSGTEFTLTISSLQPEDFATYYCLQHKSYPLTFGGGTKVEIK
notes: human monoclonal antibody from IgG2 XenoMouse mice; also called AM-8

- IL-17A/HFF bioassay IC50; 21. Subclone of (AMH17/AML17) [1]: 2.5 nM
- IL-17A/HFF bioassay IC50; 22. Subclone of (AMH17/AML17) [1]: 5.3 nM
- IL-17A/HFF bioassay IC50; 23. Subclone of (AMH17/AML17) [1]: 0.57 nM
B9: AMH17/AML17 (antibody, V domains shown)
VH: QVQLVQSGAEVKKPGAAVKVSCKATGYTLTSYGISWVRQAPGQGLEWMGWISAYSGNTKYAQKLQGRVTMTTDTSTSTAYMELRSLRSDDTAVYYCARKQLVFDYWGQGTLVTVSS
VL: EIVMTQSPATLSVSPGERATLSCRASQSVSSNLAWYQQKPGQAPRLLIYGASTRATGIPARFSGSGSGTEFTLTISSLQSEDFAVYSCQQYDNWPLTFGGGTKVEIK

- IL-17A/HFF bioassay IC50; 17. Subclone of (AMH12/AML12) [1]: 3.5 nM
- IL-17A/HFF bioassay IC50; 18. Subclone of (AMH12/AML12) [1]: 3.7 nM
- IL-17A/HFF bioassay IC50; 20. Subclone of (AMH12/AML12) [1]: 5.5 nM
B10: AMH12/AML12 (antibody, IgG2, V domains shown)
VH: QVQLVQSGAEVKKPGASVKVSCKASGYTLTSYGISWVRQAPGQGLEWMGWISTYKGNTNYAQKLQGRVTMTTDTSTSTAYMELRSLRSDDTAVYYCARKQLVFDYWGQGTLVTVSS
VL: EIVMTQSPATLSVSPGERATLSCRASQSISSSLAWYQQKPGQAPRLLIYGASTRATGIPARFSGSGSGTEFTLTISSLQSENFAVYYCQQYDNWPLTFGGGTKVEIK

- IL-17A/HFF bioassay IC50; 24. Subclone of (AMH16/AML16) [1]: 1.6 nM
- IL-17A/HFF bioassay IC50; 25. Subclone of (AMH16/AML16) [1]: 2.3 nM
- IL-17A/HFF bioassay IC50; 26. Subclone of (AMH16/AML16) [1]: 1.4 nM
B11: AMH16/AML16 (antibody, IgG2, V domains shown)
VH: QVQLVQSGAEVKKPGASVKVSCKASGYTFTSYGISWVRQAPGQGLEWMGWISAYNGNTKYAQKLQGRVTMTTDTSTSTVYMELRSLRSDDTAVYYCARKQLVFDYWGQGTLVTVSS
VL: EIVMTQSPATLSVSPGERATLSCRASQSISTSLAWYQQKPGQAPRLLIYGTSTRATGIPARFSGSGSGTEFTLTISSLQSEDFAVYFCQQYDIWPLTFGGGTKVEIK

- IL-17A/HFF bioassay IC50; 10. Subclone of (AMH19/AML19) [1]: 0.22 nM
- IL-17A/HFF bioassay IC50; 11. Subclone of (AMH19/AML19) [1]: 1.1 nM
- IL-17A/HFF bioassay IC50; 12. Subclone of (AMH19/AML19) [1]: 0.5 nM
B12: AMH19/AML19 (antibody, IgG2, V domains shown)
VH: QVQLVQSGAEVKKPGASVKVSCKASGYTLTSYGISWVRQAPGQGLEWMGWISAYSGNTKYAQKFQGRVTMTTDTSTSTAYMELRSLRSDDTAVYYCARRQLALDYWGQGTLVTVSS
VL: EIVMTQSPATLSVSPGERATLSCRASQSISSNLAWYQQKPGQAPRLLIYGASTRATGIPARFSDNGSGTEFTLTISSLQSEDFAVYFCQQYDTWPLTFGGGTKVEIK

- binding result [3]: binds
B13: AMH4/AML4 (antibody, IgG2, V domains shown)
VH: QVQLVESGGGVVQPGRSLRLSCAASGINFSSYGMHWVRQAPGKGLEWVAVIWYDGSNKHYADSVKGRFTISRDNSKNTLYLQMNSLRAEDTAVYYCARDTGVYWGQGTLVTVSS
VL: not shown
notes: human monoclonal antibody from IgG2 XenoMouse mice; also called AM-4
